What was measured:
Assay in all cases: FP titration, 1 nM peptide, hinge varied
[1] = biological target: T1, TAMRA-labeled effector peptide cs074B (5(6)-TAMRA label coupled on resin after synthesis)
T1 construct: Chemically synthesized; also called TAMRA-cs074B
T1 peptide: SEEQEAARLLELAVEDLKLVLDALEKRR
Procedure: (§1) FIG. 10. Redesign of hinges to bind other target peptides. An experimentally tested hinge (top, cs201) is redesigned using a one-sided two-state design approach to bind to different target peptides. Hinges csw13 and csw20 are designed to bind to peptides cs221B and cs074B, respectively, while having a backbone conformation that is similar to the parent cs201 that binds cs201B. Left: design models, right: FP titrations using 1 nM peptide (cs201B, cs221B, cs074B, js007B) and varying concentrations of hinge (from top to bottom: cs201, csw13, csw20). csw13 is an example of a successful orthogonal redesign that specifically binds the new target peptide cs221B while not binding the parent target peptide cs201B or the off-target peptides cs074B or js007B. csw20 is a less orthogonal example that binds the new target peptide cs074B most strongly but still binds to the parent-target peptide cs201B and to the off-target peptide cs221B albeit weaker than the new target.
(§2) All FP measurements were performed at 25° C. in 96-well plates (Corning 3686) using a Synergy Neo2™ plate reader and a 530/590 nm filter cube. The buffer for all FP measurements was 20 mM Tris-HCl, 100 mM NaCl, 0.05% v/v TWEEN20 at pH 8. Titrations were carried out in 96-well format, with 4 replicates per plate and 24 data points per titration (23 steps of two-fold serial dilution of hinges in the presence of TAMRA-labeled peptide at a constant concentration between 0.1 nM and 1 nM) with a final sample volume of 80 μl per well. Titration plates were incubated overnight at room temperature before measuring to ensure complete equilibration. The polarization signal S (as calculated by the Neo2™ software) was fitted to the equation

[2] = biological target: T2, TAMRA-labeled effector peptide cs221B (5(6)-TAMRA label coupled on resin after synthesis)
T2 construct: also called TAMRA-cs221B
T2 peptide: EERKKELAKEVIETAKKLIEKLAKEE
Procedure: as §1, §2

[3] = biological target: T3, TAMRA-labeled effector peptide cs201B (5(6)-TAMRA label coupled on resin after synthesis)
T3 construct: also called TAMRA-cs201B
T3 peptide: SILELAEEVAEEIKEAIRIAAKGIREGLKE
Procedure: as §1, §2

[4] = biological target: T4, TAMRA-labeled effector peptide js007B (5(6)-TAMRA label coupled on resin after synthesis)
T4 construct: also called TAMRA-js007B
T4 peptide: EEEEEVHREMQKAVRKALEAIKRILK
Procedure: as §1, §2

binding result [1]: no binding
binding result [2]: binds
binding result [3]: no binding
binding result [4]: no binding
B1: swapped target hinge csw13 (designed binder)
chain: MSGNEEVKKLVEEAKKYLKEAEEYIKKAKKTGNEELLEKALKLLEKALELVKKAIELDPNNKEAIEQAVEIARALNEVAELLIEEAKKTGNEELLEKALEALEAANEALKLAIENNENDKELLAEIAVELAEVGVLLAEVLIEEAKKTGDPELLKLALEVLEAAVEALELALKLDPNNEEAVELAEEAAKLLEEVAKELKEEAKKTGDPELEKLAKEAEELAKRAKELAERQRGSGSHHWGSTHHHHHH
